Test [1] has as its target T1, human FcγRIIA(R131) expressed on CHO cells (human, UniProt P12318 34-317).
T1 construct: whole, on cells
T1 sequence (looked up): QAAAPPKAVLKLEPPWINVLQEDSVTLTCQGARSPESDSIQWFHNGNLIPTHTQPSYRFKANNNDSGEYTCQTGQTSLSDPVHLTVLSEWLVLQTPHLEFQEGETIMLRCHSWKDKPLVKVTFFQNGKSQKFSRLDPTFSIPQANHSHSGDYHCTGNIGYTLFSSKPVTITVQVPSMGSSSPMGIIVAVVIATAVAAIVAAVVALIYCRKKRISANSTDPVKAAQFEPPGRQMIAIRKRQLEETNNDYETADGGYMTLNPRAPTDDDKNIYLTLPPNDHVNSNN
The test can be described thus: FACS, CHO cells expressing FcγRIIA(R131). The protocol:
(§1) For FACS analysis of the IgG mutants' binding to different FcγRs, FcγR overexpressing CHO cells were harvested using trypsin-EDTA and were suspended in cold staining buffer (3% BSA in PBS). Test IgG mutants, which were diluted in staining buffer, were added into the cells. The mixture was incubated 4° C. for 2 hours, and then washed twice with cold staining buffer and re-suspended in PE-labeled anti-human IgG followed by incubation at 4° C. for 2 hours. The mixture was washed twice with staining buffer and re-suspended in 2% PFA in PBS for FACS.
Background: A flow cytometer gives signals particle by particle.

For test [2], the target named is T2, human FcRIIIA-F158 protein (MednaBio, E1036) (human, UniProt P08637 17-208).
T2 construct: Bought; also called FcγRIIIA(F)
T2 sequence (P08637 17-208 limits assumed): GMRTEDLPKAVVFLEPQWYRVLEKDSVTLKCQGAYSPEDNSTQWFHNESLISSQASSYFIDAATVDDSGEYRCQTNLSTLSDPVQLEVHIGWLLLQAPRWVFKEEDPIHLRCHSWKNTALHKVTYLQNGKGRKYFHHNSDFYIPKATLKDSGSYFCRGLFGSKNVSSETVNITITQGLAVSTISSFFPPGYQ
The experiment in a line: BLI. Put shortly:
(§2)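 Binding was measured by biolayer interferometry on an Octet Red96 System. Commercial human Fc receptor proteins were loaded at 20 μg/mL onto anti-penta-HIS biosensors, which were then dipped into an 8-point 1:3 dilution series of test IgG starting at 300 nM in PBS with 0.1% BSA and 0.02% Tween-20, at pH 7.2 for Fcγ receptors and pH 6 for FcRn. Kd, kon and koff were obtained by global fitting, with data fitted to a 1:1 binding model.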

In test [3] the target is T3, human FcRIIB/C protein (MednaBio, E1034) (human, UniProt P31994 43-217, limits assumed).
T3 construct: Bought as FcRIIB/C; also called FcγRIIB; CD32B
T3 sequence (looked up): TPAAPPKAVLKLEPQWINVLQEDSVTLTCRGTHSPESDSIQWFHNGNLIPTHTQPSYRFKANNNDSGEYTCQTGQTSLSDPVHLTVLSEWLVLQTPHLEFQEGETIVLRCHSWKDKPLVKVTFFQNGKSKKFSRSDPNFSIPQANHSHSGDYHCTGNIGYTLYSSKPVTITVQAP
The experiment in a line: BLI. Put shortly: as §2
(In general: Biolayer interferometry detects binding as a change in optical thickness at a sensor tip.)

The target in test [4] is T4, human FcRIIA protein (MednaBio, E1033) (human, UniProt P12318 34-218, limits assumed).
T4 construct: Bought; also called FcγRIIA
T4 sequence (looked up): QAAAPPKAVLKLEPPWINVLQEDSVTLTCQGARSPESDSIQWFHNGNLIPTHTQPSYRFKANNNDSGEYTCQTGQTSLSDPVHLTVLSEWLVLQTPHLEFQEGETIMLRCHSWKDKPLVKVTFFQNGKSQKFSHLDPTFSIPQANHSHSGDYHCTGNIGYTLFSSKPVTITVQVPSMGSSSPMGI
The experiment in a line: BLI. Put shortly:
as §2

The target of test [5] is T5, human FcRIIIB protein (MednaBio, E1037) (human, UniProt O75015 17-200).
T5 construct: Bought; also called FcγRIIIB; FcgRIIIB
T5 sequence (O75015 17-200 limits assumed): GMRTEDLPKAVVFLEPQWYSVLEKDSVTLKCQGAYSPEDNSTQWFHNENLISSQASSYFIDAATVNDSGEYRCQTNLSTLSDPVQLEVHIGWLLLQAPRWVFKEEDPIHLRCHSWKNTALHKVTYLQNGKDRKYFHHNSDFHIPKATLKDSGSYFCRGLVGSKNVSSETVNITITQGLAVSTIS
The test can be described thus: BLI. The method in brief:
as §2

For test [6], the target named is T6, human FcRIIIA-V158 protein (MednaBio, E1035) (human, UniProt P08637 17-208).
T6 construct: Bought; also called FcγRIIIA(V); FcgRIIIA(V)
T6 sequence (P08637 17-208 F176V): as the sequence (P08637 17-208 limits assumed) above, with F160V counted along it
The experiment in a line: BLI. The method in brief:
as §2

In test [7] the target is T7, human FcRn protein (MednaBio, E1032) (human, UniProt P55899 24-297; P61769 21-119).
T7 construct: Bought; assays at pH 6
T7 sequence (P55899 24-297 limits assumed, form in doubt, chain 1 of 2): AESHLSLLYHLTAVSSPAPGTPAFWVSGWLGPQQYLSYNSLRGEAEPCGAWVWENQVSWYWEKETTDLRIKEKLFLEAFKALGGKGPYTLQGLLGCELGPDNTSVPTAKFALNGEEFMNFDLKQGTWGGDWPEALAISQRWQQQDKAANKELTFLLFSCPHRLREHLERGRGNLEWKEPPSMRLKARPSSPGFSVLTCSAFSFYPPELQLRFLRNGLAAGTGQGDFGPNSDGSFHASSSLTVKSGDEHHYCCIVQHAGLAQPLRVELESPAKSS
T7 sequence (P61769 21-119 limits assumed, form in doubt, chain 2 of 2): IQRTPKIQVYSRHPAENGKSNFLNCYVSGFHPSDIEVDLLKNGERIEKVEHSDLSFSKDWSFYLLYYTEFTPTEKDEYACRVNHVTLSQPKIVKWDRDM
The test can be described thus: BLI. The method in brief:
as §2

The target in test [8] is T8, human FcRI protein (MednaBio, E1031) (human, UniProt P12314 16-288, limits assumed).
T8 construct: Bought; loaded on anti-penta-HIS biosensors; also called FcγRI
T8 sequence (P12314 16-288 limits assumed): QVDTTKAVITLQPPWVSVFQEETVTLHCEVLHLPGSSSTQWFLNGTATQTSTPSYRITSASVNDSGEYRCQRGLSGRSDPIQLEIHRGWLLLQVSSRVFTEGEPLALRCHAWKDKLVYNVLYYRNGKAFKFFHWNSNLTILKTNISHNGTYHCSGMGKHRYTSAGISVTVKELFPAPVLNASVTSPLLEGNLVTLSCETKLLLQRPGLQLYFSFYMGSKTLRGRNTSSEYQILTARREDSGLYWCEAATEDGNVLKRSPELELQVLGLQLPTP
The test can be described thus: BLI. Put shortly: as §2

In test [9] the target is T9, human FcγRIIA(H131) expressed on CHO cells (human, UniProt P12318 34-317).
T9 construct: whole, on cells
T9 sequence (looked up): T1 sequence (looked up) with R134H
The experiment in a line: FACS, CHO cells expressing FcγRIIA(H131). The protocol:
FIGS. 1A-1W are charts showing binding activity of various IgG variants as indicated to different types of Fcγ receptors expressed on CHO-K1 cells at the various concentrations as indicated. The concentrations of each IgG variant, from left to right, are 0 μg/ml, 0.3 μg/ml, 1 μg/ml, 3 μg/ml, and 10 μg/ml in FIGS. 1A-1C, 1E-J, 1L-1M, 1P-1R, and 1T-1V. For FIGS. 1D, 1K, 10, 1S, and 1w the bars, from left to right, correspond to the following concentrations of IgG variant: 0.3 μg/ml, 1 μg/ml, 3 μg/ml, and 10 μg/ml.
as §1

Test [10] concerns the target T10, human FcγRIIC expressed on CHO cells (human, UniProt P31995 43-323).
T10 construct: whole, on cells
T10 sequence (looked up): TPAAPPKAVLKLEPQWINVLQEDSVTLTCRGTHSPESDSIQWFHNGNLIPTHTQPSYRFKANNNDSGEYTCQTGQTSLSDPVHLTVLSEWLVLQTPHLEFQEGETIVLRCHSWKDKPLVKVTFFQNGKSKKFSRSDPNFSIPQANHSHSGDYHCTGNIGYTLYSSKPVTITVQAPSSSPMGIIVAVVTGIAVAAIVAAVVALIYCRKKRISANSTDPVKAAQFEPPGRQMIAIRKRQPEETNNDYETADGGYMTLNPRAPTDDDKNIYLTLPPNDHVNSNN
The test can be described thus: FACS, CHO cells expressing FcγRIIC. The protocol:
as §1

Changes are numbered by the printed parent chain.

B1: anti-CD137 IgG1 with Fc variant G1m25 (antibody)
heavy: EVQLVQSGAEVKKPGESLRISCKGSGYSFSTYWISWVRQMPGKGLEWMGKIYPGDSYTNYSPSFQGQVTISADKSISTAYLQWSSLKASDTAMYYCARGYGIFDYWGQGTLVTVSSASTKGPSVFPLAPSSKSTSGGTAALGCLVKDYFPEPVTVSWNSGALTSGVHTFPAVLQSSGLYSLSSVVTVPSSSLGTQTYICNVNHKPSNTKVDKKVEPKSCDKTHTCPPCPAPELLGPSVFLFPPKPKDTLMISRTPEVTCVVVDVSHEDPEEKFNWYVDGVEVHNAKTKPREEQYNSTYRVVSVLTVLHQDWLNGKEYKCKVSNKALPAPIEKTISKAKGQPREPQVYTLPPSREEMTKNQVSLTCLVKGFYPSDIAVEWESNGQPENNYKTTPPVLDSDGSFFLYSKLTVDKSRWQQGNVFSCSVMHEALHNHYTQKSLSLSPGK
light: SYELTQPPSVSVSPGQTASITCSGDNIGDQYAHWYQQKPGQSPVLVIYQDKNRPSGIPERFSGSNSGNTATLTISGTQAMDEADYYCATYTGFGSLAVFGGGTKLTVLGQPKAAPSVTLFPPSSEELQANKATLVCLISDFYPGAVTVAWKADSSPVKAGVETTTPSKQSNNKYAASSYLSLTPEQWKSHRSYSCQVTHEGSTVEKTVAPTECS
notes: copies: 2 + 2
For orientation: Kd means the concentration at which binding is half-saturated. Read a low Kd as tighter binding. As a reminder, the koff is the rate constant with which the complex falls apart. A low value points to a long-lived complex. Broadly, the kon is the rate constant with which the complex forms. A lower kon goes with slower complex formation. In the case of B1, the binding result is on record as “no binding (tested: 10 ug/ml)” in test [1]; “no binding (tested: 300 nM)” in test [2]; “no binding (tested: 300 nM)” in test [3]; “no binding (tested: 300 nM)” in test [4]; “no binding (tested: 300 nM)” in test [5]; “no binding (tested: 300 nM)” in test [6]. The binding result is listed as “no binding (tested: 300 nM)” in test [8], “no binding (tested: 10 ug/ml)” in [9] and “no binding (tested: 10 ug/ml)” in [10]. The molecule further returned a Kd in test [7] of 15 nM. For the same molecule, the koff in [7] stood at 0.0093 s⁻¹. The kon in test [7] came to 620000 M⁻¹ s⁻¹.

B2: anti-CD137 IgG1 with Fc variant G1m27 (antibody)
heavy: B1 heavy with S265E, E271V
light: B1 light
notes: copies: 2 + 2
Consider B2, for which the binding result is “no binding (tested: 300 nM)” in test [2]; “no binding (tested: 300 nM)” in [4]; “no binding (tested: 300 nM)” in test [5]; “no binding (tested: 300 nM)” in [6]; “no binding (tested: 300 nM)” in test [8]; “no binding (tested: 10 ug/ml)” in test [9]. The Kd in test [3] was determined as 410 nM; in [7], 16 nM. Further, the koff was determined as 0.1 s⁻¹ in [3] and 0.01 s⁻¹ in test [7]. The kon in test [3] stood at 260000 M⁻¹ s⁻¹; in test [7], 650000 M⁻¹ s⁻¹.

B3: anti-CD137 IgG1 with Fc variant G1m28 (antibody)
heavy: B1 heavy with E271V, L326F
light: B1 light
notes: copies: 2 + 2
As to B3, the binding result in test [1] is “no binding (tested: 10 ug/ml)”; in test [2] it was “no binding (tested: 300 nM)”; in [4], “no binding (tested: 300 nM)”; in test [5] it was “no binding (tested: 300 nM)”; in [6], “no binding (tested: 300 nM)”; in [9] it was “no binding (tested: 10 ug/ml)”. Besides, the Kd in test [3] is 410 nM; in test [7] it was 17 nM; in test [8], 240 nM. Further, the dissociation rate constant (koff) came to 0.2 s⁻¹ in test [3], 0.011 s⁻¹ in test [7] and 0.16 s⁻¹ in test [8]. Also, the kon in test [3] is 480000 M⁻¹ s⁻¹; in test [7] it was 650000 M⁻¹ s⁻¹; in test [8] it was 640000 M⁻¹ s⁻¹.

The values are drawn from US20200392227A1 (LYVGEN BIOPHARMA, published 2020).
